Reference: patent US20040191820, “Protection-of telomere-1 (POT-1) protein and encoding polynucleotides” (The Regents of the University of Colorado, published 2004)

Columns and labels:
[1] = biological target: T1, hPot1p (Homo sapiens, UniProt Q9NUX5 SEQ:1-634); test: EMSA; conditions as for SpPot1p; settings: tags: N-terminal His6 (pQE30), E. coli
T1 chain: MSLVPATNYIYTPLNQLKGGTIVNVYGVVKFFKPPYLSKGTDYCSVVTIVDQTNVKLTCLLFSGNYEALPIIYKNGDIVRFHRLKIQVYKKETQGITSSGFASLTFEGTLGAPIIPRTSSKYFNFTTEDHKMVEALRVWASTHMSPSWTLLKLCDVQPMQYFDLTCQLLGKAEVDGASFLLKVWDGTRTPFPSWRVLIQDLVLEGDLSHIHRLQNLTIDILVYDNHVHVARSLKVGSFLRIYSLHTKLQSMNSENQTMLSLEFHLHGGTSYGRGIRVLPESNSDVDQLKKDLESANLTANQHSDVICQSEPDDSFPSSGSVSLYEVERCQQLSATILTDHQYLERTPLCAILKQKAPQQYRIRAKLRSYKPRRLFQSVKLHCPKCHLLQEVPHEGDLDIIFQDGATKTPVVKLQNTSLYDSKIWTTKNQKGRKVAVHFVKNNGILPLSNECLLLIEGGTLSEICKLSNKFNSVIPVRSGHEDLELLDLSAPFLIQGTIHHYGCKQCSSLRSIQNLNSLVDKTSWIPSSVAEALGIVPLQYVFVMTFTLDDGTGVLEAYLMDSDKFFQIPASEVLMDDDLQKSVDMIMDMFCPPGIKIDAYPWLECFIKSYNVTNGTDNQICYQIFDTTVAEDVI

[2] = biological target: T1, hPot1p; test: listed as hPot1p-binding; settings: tags: N-terminal His6 (pQE30), E. coli

TTAGGGTTAGGGTTAGGGTTAGGGTTAGGG (ssDNA) [human G-strand (TTAGGG)5 (PBoli179)]
binding result [1]: binds

TTAGGGTTAGGGTTAGGGTT (ssDNA) [PBoli177]
binding result [2]: binds

GGTTAGGGTTAGGGTTAGGG (ssDNA) [PBoli178]
binding result [2]: binds
